Article doi:10.1101/2025.03.21.644525 (bioRxiv, 2025)

Target: T1, ARM domain of APC (residues 338-1010), untagged (Mus musculus, UniProt Q61315 338-1010)
T1 sequence (looked up): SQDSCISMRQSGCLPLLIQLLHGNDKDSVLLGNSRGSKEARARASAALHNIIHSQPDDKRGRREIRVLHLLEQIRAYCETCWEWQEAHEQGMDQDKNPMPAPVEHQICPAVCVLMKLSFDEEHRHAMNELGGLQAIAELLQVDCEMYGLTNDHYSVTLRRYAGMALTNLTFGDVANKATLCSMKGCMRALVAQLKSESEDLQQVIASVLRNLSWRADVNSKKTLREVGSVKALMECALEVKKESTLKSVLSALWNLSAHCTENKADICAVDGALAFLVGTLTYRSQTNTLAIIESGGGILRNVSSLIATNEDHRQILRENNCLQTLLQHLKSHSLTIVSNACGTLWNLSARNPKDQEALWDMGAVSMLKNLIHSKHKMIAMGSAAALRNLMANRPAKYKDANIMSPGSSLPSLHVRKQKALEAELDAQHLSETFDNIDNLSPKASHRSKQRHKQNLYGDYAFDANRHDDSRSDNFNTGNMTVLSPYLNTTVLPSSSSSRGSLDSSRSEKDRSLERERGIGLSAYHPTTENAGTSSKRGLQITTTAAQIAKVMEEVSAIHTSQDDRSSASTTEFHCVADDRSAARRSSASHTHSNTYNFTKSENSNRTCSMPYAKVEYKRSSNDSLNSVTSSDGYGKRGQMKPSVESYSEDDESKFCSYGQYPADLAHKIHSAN
Assay: cryo-EM structure

binding result: binds
B1: KIF3A C-terminal region (residues 481-701, ACT), N-terminal 6His tag (domain or fragment, Mus musculus, UniProt P28741 481-701, looked up)
chain: VIVGGVDLLAKAEEQEKLLEESNMELEERRRRAEQLRKELEEKEQERLDIEEKYTSLQEEAQGKTKKLKKVWTMLMAAKSEMADLQQEHQREIEGLLENIRQLSRELRLQMLIIDNFIPQDYQEMIENYVHWNEDIGEWQLKCVAYTGNNMRKQTPVPDKKERDPFEVDLSHVYLAYTEESLRQSLMKLERPRTSKGKARPKMGRRKRSAKPETVIDSLLQ
